Experiments:
[1] = target: T1, F-actin (rabbit skeletal muscle α-actin, filamentous) (rabbit (Oryctolagus cuniculus), UniProt P68135 1-377); assay: fluorescence polarisation
[2] = target: T1, F-actin (rabbit skeletal muscle …); assay: other fluorescence titration

| Binder | Kd [1] [nM] | Kd [2] [nM] |
| --- | --- | --- |
| FM-SipAC-ΔArm2 (SipA residues 425-658 labelled with fluorescein maleimide) (domain or fragment, labeled with fluorescein maleimide (FM)) TGETTSFDEVDGVTSKSIIGKPVQATVHGVDDNKQQSQTAEIVNVKPLASQLAGVENVKTDTLQSDTTVITGNKAGTTDNDNSQTDKTGPFSGLKFKQNSFLSTVPSVTNMHSMHFDARETFLGVIRKALEPDTSTPFPVRRAFDGLRAEILPNDTIKSAALKAQCSDIDKHPELKAKMETLKEVITHHPQKEKLAEIALQFAREAGLTRLKGETDYVLSNVLDGLIGDGSWRA | 120 | – |
| SipAC-Core (SipA residues 512-658), unlabelled (domain or fragment) TGPFSGLKFKQNSFLSTVPSVTNMHSMHFDARETFLGVIRKALEPDTSTPFPVRRAFDGLRAEILPNDTIKSAALKAQCSDIDKHPELKAKMETLKEVITHHPQKEKLAEIALQFAREAGLTRLKGETDYVLSNVLDGLIGDGSWRA | – | 81 |
